Test results as given in US10308692B2, “Variants of GAL2 transporter and their uses” (Johann Wolfgang Goethe-Universität Frankfurt, priority 2014, dated 2019).
Residue numbers refer to the chain shown, from its start. Names and notes keep the numbering of the source.

B1: N376Y + M435I: Gal2 variant with amino acid substitutions N376Y and M435I (protein, UniProt P13181 1-574, looked up, variant N376Y M435I)
Galactose transporter: MAVEENNMPVVSQQPQAGEDVISSLSKDSHLSAQSQKYSNDELKAGESGSEGSQSVPIEIPKKPMSEYVTVSLLCLCVAFGGFMFGWDTGTISGFVVQTDFLRRFGMKHKDGTHYLSNVRTGLIVAIFNIGCAFGGIILSKGGDMYGRKKGLSIVVSVYIVGIIIQIASINKWYQYFIGRIISGLGVGGIAVLCPMLISEIAPKHLRGTLVSCYQLMITAGIFLGYCTNYGTKSYSNSVQWRVPLGLCFAWSLFMIGALTLVPESPRYLCEVNKVEDAKRSIAKSNKVSPEDPAVQAELDLIMAGIEAEKLAGNASWGELFSTKTKVFQRLLMGVFVQMFQQLTGNNYFFYYGTVIFKSVGLDDSFETSIVIGVVYFASTFFSLWTVENLGHRKCLLLGAATMMACMVIYASVGVTRLYPHGKSQPSSKGAGNCIIVFTCFYIFCYATTWAPVAWVITAESFPLRVKSKCMALASASNWVWGFLIAFFTPFITSAINFYYGYVFMGCLVAMFFYVFFFVPETKGLSLEEIQELWEEGVLPWKSEGWIPSSRRGNNYDLEDLQHDDKPWYKAMLE
B2: N376F + M435I: Gal2 variant with amino acid substitutions N376F and M435I (protein, UniProt P13181 1-574, looked up, variant N376F M435I)
Galactose transporter: B1 Galactose transporter with Y376F
B3: N376F: Gal2 variant with amino acid substitution N376F (protein, UniProt P13181 1-574, looked up, variant N376F)
Galactose transporter: B1 Galactose transporter with Y376F, I435M
B4: Gal2 WT: wild-type protein Gal2 of S. cerevisiae CEN.PK2-1C, SEQ ID NO: 1, 574 amino acids, galactose transporter (protein, UniProt P13181 1-574, looked up)
Galactose transporter: B1 Galactose transporter with Y376N, I435M
B5: Gal2_M435I: M435I exchange introduced into wild-type Gal2 (protein, UniProt P13181 1-574, looked up, variant M435I)
Galactose transporter: B1 Galactose transporter with Y376N
B6: N376Y: Gal2 variant with amino acid substitution N376Y (protein, UniProt P13181 1-574, looked up, variant N376Y)
Galactose transporter: B1 Galactose transporter with I435M

Assays:
Type in all cases: cell-based, Saccharomyces cerevisiae
AFY10 [1] = experiment: Growth test in liquid media and fermentation; conditions: for xylose concentration of the supernatant decreased during the fermentation to: HPLC
Description: The strain AFY10, which was transformed with YEp181_pHXT7-opt.XI_Clos and p426H7-GAL2_wt (WT) or p426H7-GAL2_ep3.1 (ep3.1) or p426-GAL2_N376Y+M435I (M435I), was incubated in 150 ml SCE-ura-leu+G418. This was the preculture which was used to start the fermentation with an OD600 of 0.6 in 30 ml SC-ura-leu with 0.6% xylose (A) or with 0.6% xylose with 2% glucose (B). The cultures were incubated at 180 rpm and 30° for seven days. Samples were taken for growth measurements as well as metabolite analysis.
For analysis of metabolites cell-free samples (5-10 min, 4° C., 16000×g) were mixed with 1/9 volumes of 50% (w/v) 5-sulfosalicylic acid and centrifuged (5-10 min, 4° C., 16000×g). The supernatant was analyzed in an UHPLC+ system by Thermo Scientific (Dionex UltiMate 3000) equipped with a HyperREZ XP Carbohydrate H^+8 μm column and a refractive index detector (Thermo Shodex RI-101). Separation was carried out at column temperature of 65° C. with 5 mM sulfuric acid as mobiles phase with a flow rate of 0.6 ml/min. Chromeleon 6.80 software was used to control the system and to analyze the data. Five standards (mixtures of D-glucose, D-xylose, xylitol, acetate, glycerol and ethanol with concentrations of 0.01-3% (w/v)) were analyzed for quantification of the different compounds.
To investigate the growth difference and the xylose consumption of the mutants in comparison to the wild type and the error prone mutant, an anaerobic growth test in liquid media was carried out. For this purpose AFY10 cells were co-transformed with the vector with the respective GAL2 sequence and YEp181_pHXT7-opt.XI_Clos and inoculated in SCE-ura-leu+G418 to have an OD600 of 0.6 in 30 ml SC-ura-leu with 0.6% xylose or with 0.6% xylose with 2% glucose. The OD600 was measured regularly during five days, the growth rate μ was determined and the metabolites of the samples were examined, whereby the samples were diluted 1:5 for this reason.

AFY10 [2] = experiment: Serial dilution drop test on xylose and xylose-glucose media; conditions: for growth on low xylose: 0.2% (2 g/l) xylose; for growth on high xylose: 2% (20 g/l) xylose, compared within the same drop test
Description: The transformants were cultivated in 5 ml SCE-ura-leu with 2% ethanol at 30°, washed with water and adjusted to an OD600 of 1. Thereof it followed a serial dilution. 5 μl were dropped onto the respective media and it was incubated for five days at 30°. As a control for the dilution SCE-ura-leu with 2% ethanol was taken. The cells of the mutated transporters were dropped onto SCX-ura-leu with 0.2% and 2% D-xylose, as well as SC-ura-leu with 1% D-xylose with 4% D-glucose and SC-ura-leu with 0.2% D-xylose and 2% D-glucose to test their functionality. Furthermore the wild type and Gal2_ep3.1 were used for comparison.
FIG. 5: Drop test of Gal2_M435I in AFY10 after five days at 30°. Several dilutions were dropped from left to right (undiluted, 1:10, 1:100, 1:1000).
FIG. 6: Drop test of Gal2_N376F, N376F+M435I and N376Y+M435I in AFY10 after five days at 30°. Several dilutions were dropped from left to right (undiluted, 1:10, 1:100, 1:1000). But on 20 g/l xylose the order was different (undiluted, 1:100, 1:1000, 1:10).
(§1) For easy comparison of growth of different S. cerevisiae strains under various growth conditions a serial dilution spot assay was performed. Cells were grown in liquid culture to exponential phase in appropriate medium, collected by centrifugation (2000×g, 2 min), washed twice with sterile water and then resuspended to an OD600 of 1.0 in selective medium without carbon source. From this cell suspension a ten-fold serial dilution was prepared in selective medium (four dilution steps). 6 μl of each cell suspension were spotted on plates of the media to be examined and allowed to dry. Plates were incubated at 30° C.
To characterize the different constructs which all were verified by sequencing they were transformed together with vector YEp181_pHXT7-optXI_Clos into competent AFY10 cells and drop tests were performed.

EBY.VW4000 [3] = experiment: Xylose uptake assay with radioactively labelled xylose; conditions: for xylose uptake rate compared to wild type: FIGS. 7 and 8; for Vmax: xylose uptake, Michaelis-Menten fit (GraphPad Prism), three replicates, figures give velocity in nmol xylose per minute per milligram cell dry mass
Excerpt: FIG. 7: Xylose uptake assay of Gal2_N376Y, N376Y+M435I and Gal2 wild type in EBY.VW4000 (three independent replicates). The uptake velocity is shown in nmol xylose per minute per milligram cell dry mass.
FIG. 8: Xylose uptake assay of Gal2_N376F, N376F+M435I and Gal2 wild type in EBY.VW4000 (three independent replicates). The uptake velocity is shown in nmol xylose per minute per milligram cell dray mass.
Sugar uptake assays were done as described by Bisson et al. (Bisson and Fraenkel, 1983) with modifications according to Walsh et al. (Walsh et al., 1994).
Transformants of strain EBY.VW4000 were grown in selective YEPE to an OD of 1.1-1.6, harvested by centrifugation and washed twice in ice-cold uptake-buffer (RT, 3 min, 3000×g). Cells were kept on ice from here on. The cell pellet was resuspended in ice-cold uptake-buffer to a concentration of 60 mgww/ml and aliquoted to 110 μl. One cell suspension aliquot and one sugar solution were incubated in a water bath at 30° C. for 4-5 min. 100 μl of the cell suspension were pipetted to the sugar solution (50 μl), mixed briefly by pipetting and incubated for 5 (D-[U-^14C]-glucose) or 20 sec (D-[1-^14C]-xylose). The uptake reaction was stopped by transferring 100 μl of the mixture into 10 ml ice-cold quenching-buffer, which was immediately filtered through a Durapore membrane filter (0.22 μm pore size, Millipore). The filter was washed twice with 10 ml ice-cold quenching-buffer, transferred to a scintillation vial containing 4 ml scintillation cocktail (Rotiszint eco plus, Roth) and shaken thoroughly. Additionally to this filter sample (cpmfilter), 10 μl of each reaction were transferred directly to a scintillation vial with 4 ml scintillation cocktail for determination of the total counts in the reaction (cpmtotal). To determine a value for sugar that is bound unspecifically to the cell surface or the filter (cpmblank) a few samples of 33,3 μl sugar solution and 66,6 μl cell suspension were mixed in 10 ml icecold quenching buffer and treated as described above. Radioactivity of all vials was analysed in an Wallac 1409 liquid scintillation counter.
Stocksolutions of 2M, 500 mM or 20 mM glucose or xylose (in H2O) were used to prepare the sugar solutions for the assays (threefold of the desired concentration in the uptake reaction (S, substrate concentration), 50 μl aliquots). Uptake was measured at sugar concentrations 0.2, 1, 5, 25 and 100 mM for glucose and 1, 5, 25, 66, 100, 200 and 500 mM for xylose. Inhibition of xylose uptake by glucose was measured at 25, 66 and 100 mM xylose with additional 25 and 100 mM unlabelled glucose. Sugar solutions contained 0.135 to 0.608 μCi of D-[U-^14C]-glucose (290-300 mCi/mmol) or D-[1-^14C]-xylose (55 mCi/mmol) (American Radiolabeled Chemicals Inc., St. Louis, Mo., USA).
The amount of sugar (Asugar in nmol) taken up during the incubation time (t, in seconds) at a certain sugar concentration (S, in mM): Asugar=((cpmsample−cpmblank)/(cpmtotal·10))·S·100 μl
Transport velocity (in nmol·min^−1·mgww^−1) calculated per milligrams of cell (m, in mgww): V=(Asugar·60 s)/(t·m)
Calculation of Km (Michaelis constant), Vmax (maximal initial uptake velocity) and Ki (inhibitor constant for competitive inhibition) was done by nonlinear regression analysis and global curve fitting in Prism 5 (GraphPad Software, Inc.) with values of three independent measurements.
Xylose uptake of Gal2_N376F, N376F+M435I, N376Y und N376Y+M435I was characterized with a sugar uptake assay. The relevant plasmids were transformed in strain EBY.VW4000. Cells were cultivated in SCM-ura until they reached the exponential growth phase (OD600˜0.6). Then cells were harvested, concentrated to the same OD600 (OD600 35-40), separated into different aliquots and stored on ice.
Three uptake assays (in tripicates) were performed with different concentrations of radioactively labelled xylose. Data were collected and fittet with GraphPad Prism according to Michaelis Menten (FIGS. 7 and 8).

EBY.VW4000 [4] = experiment: Serial dilution drop test on glucose and galactose media
Description: The transformants were cultivated in 5 ml SCM-ura with 20 g/l maltose at 30°, washed with water and adjusted to an OD600 of 1. Thereof it followed a serial dilution. 5 μl were dropped onto the respective media and it was incubated for three days at 30°. As a control for the dilution SCM-ura with 20 g/l maltose was taken. The cells of the mutated transporters were dropped onto SCD-ura with 0.2% and 2% glucose, as well as SCG-ura with 0.2% and 2% D-galactose to test their functionality. Furthermore the wild type, Gal2_ep3.1 and Gal2_N376Y were used for comparison.
FIG. 4: Drop test of Gal2_M435I in EBY.VW4000 after three days at 30°. Several dilutions from left to right were dropped (undiluted, 1:10, 1:100, 1:1000).
as §1

[5] = start 0.6% xylose with 2% glucose
[6] = drop test, FIG. 4, versus wild-type Gal2

| Molecule | xylose concentration of the supernatant decreased during the fermentation to (AFY10 [1]; [5]) [%] | growth on low xylose (AFY10 [2]) | growth on high xylose (AFY10 [2]) | xylose uptake rate compared to wild type (EBY.VW4000 [3]) | Vmax (EBY.VW4000 [3]) | other results |
| --- | --- | --- | --- | --- | --- | --- |
| B1 | 0.37 | better growth | best growth | strongly improved | 99.61 | growth rate (AFY10 [1]; 0.6% xylose): 0.014 h⁻¹; growth rate (AFY10 [1]; 0.6% xylose with 2% glucose): 0.015 h⁻¹; xylose concentration of the supernatant decreased during the fermentation to (AFY10 [1]; start 0.6% xylose): 0.35%; growth on low xylose with glucose (AFY10 [2]; 0.2% xylose with 2% glucose): better growth; growth on xylose with glucose (AFY10 [2]; 1% xylose with 4% glucose (10 g/l xylose plus 40 g/l glucose)): best growth |
| B2 | – | grow the best | – | reduced uptake rate | 13.81 | – |
| B3 | – | better than that of Gal2_N376Y+M435I | – | – | 25.86 | – |
| B4 | 0.53 | best growth | – | – | 63.43 | OD600 tend (AFY10 [1]; [Xyl+Glu]: 0.6% xylose with 2% glucose): 0,52; OD600 tend (AFY10 [1]; [Xyl]: 0.6% xylose without glucose): 0,86 |
| B5 | – | No growth | slow growth | – | – | growth on xylose-glucose mixtures (AFY10 [2]; FIG. 5): No growth; uptake of xylose (AFY10 [2]; drop test, FIG. 5): reduced; growth on glucose (EBY.VW4000 [4]; 2 g/l and 20 g/l glucose): much slower; uptake of galactose (EBY.VW4000 [4]; [6]): no effect; uptake of glucose (EBY.VW4000 [4]; [6]): strongly reduced |
| B6 | – | – | – | strong reduction | 11.92 | – |
